Measurements: article PMC4683259

Key:
[1] = biological target: KV10.1 voltage-gated potassium channel, full-length form (E100) (human) (UniProt O95259)
[2] = biological target: KV10.1 voltage-gated potassium channel, full-length form (E100) (human) (UniProt O95259); remark: listed apart in the source
[3] = biological target: KV10.1 voltage-gated potassium channel, full-length form (E100) (human) (UniProt O95259); remark: listed apart in the source

Chain of UniProt O95259 (O95259 whole entry): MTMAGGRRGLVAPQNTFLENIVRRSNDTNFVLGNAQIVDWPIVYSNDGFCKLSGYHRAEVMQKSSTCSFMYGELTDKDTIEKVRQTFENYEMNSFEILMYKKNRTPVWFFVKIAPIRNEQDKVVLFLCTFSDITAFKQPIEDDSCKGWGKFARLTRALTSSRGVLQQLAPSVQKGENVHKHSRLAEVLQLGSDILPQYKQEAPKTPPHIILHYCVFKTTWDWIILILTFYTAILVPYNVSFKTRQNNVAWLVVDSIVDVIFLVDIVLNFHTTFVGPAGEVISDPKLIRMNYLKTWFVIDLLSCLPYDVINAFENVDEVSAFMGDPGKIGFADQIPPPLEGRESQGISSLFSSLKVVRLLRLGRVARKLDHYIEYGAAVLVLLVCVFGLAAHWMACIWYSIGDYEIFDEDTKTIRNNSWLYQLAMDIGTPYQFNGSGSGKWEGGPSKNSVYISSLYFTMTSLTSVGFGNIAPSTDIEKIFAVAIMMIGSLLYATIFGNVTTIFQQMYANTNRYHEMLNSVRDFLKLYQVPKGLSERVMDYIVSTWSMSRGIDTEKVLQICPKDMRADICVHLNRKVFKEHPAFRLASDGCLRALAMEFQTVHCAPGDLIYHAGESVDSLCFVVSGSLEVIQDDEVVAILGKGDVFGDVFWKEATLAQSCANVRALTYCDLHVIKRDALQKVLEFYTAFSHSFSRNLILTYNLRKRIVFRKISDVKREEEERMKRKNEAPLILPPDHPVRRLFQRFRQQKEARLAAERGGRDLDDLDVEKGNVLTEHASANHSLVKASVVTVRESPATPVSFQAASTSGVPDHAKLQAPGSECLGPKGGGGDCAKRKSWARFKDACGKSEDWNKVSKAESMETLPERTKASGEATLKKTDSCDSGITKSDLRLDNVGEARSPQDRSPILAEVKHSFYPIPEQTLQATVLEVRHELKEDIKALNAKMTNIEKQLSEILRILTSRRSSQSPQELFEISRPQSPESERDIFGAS

**Q.** With “E65^L405YmVenus (TCC-defective E65 fused to mVenus) (natural protein)” as the substance, how does the reduction of KV10.1 current amplitude, whole-cell patch clamp, HEK-KV10.1 cells transfected with E65^L405YmVenus (not statistically significant) [1] read?
**A.** The reduction of KV10.1 current amplitude, whole-cell patch clamp, HEK-KV10.1 cells transfected with E65^L405YmVenus (not statistically significant) was 20.8%.

**Q.** Which results are given for “E65mVenus (KV10.1 splice variant E65 fused to mVenus) (natural protein)”?
**A.** reduction of KV10.1 current, whole-cell patch clamp, HEK293 cells stably expressing KV10.1 and transfected with E65mVenus (control mVenus alone) [2]: 41.7%; reduction of KV10.1 current, two-electrode voltage clamp, Xenopus oocytes co-injected with E65 and KV10.1 cRNA at a 1:10 ratio (E65 from pSGEM, no mVenus) [3]: 85%

**Q.** With “E70^L556YmVenus (TCC-defective E70 fused to mVenus) (natural protein)” as the substance, how does the reduction of KV10.1 current density at +80 mV, whole-cell patch clamp, HEK-KV10.1 cells transfected with E70^L556YmVenus [1] read?
**A.** The reduction of KV10.1 current density at +80 mV, whole-cell patch clamp, HEK-KV10.1 cells transfected with E70^L556YmVenus was 45.3%.

**Q.** Which reduction of KV10.1 current, whole-cell patch clamp, HEK293 cells stably expressing KV10.1 and transfected with E70mVenus (control mVenus alone) [2] does the source give for “E70mVenus (KV10.1 splice variant E70 fused to mVenus) (natural protein)” here?
**A.** The reduction of KV10.1 current, whole-cell patch clamp, HEK293 cells stably expressing KV10.1 and transfected with E70mVenus (control mVenus alone) was 53.8%.

**Q.** What about the reduction of KV10.1 current, two-electrode voltage clamp, Xenopus oocytes co-injected with E70 and KV10.1 cRNA at a 1:10 ratio (E70 from pSGEM, no mVenus) [3] of the same substance?
**A.** Its reduction of KV10.1 current, two-electrode voltage clamp, Xenopus oocytes co-injected with E70 and KV10.1 cRNA at a 1:10 ratio (E70 from pSGEM, no mVenus) is 60%.
